Reference: the supplement of paper PMC12042874
± gives the uncertainty stated by the source.

Assay: amyloid nucleation score (Sup35N fusion, yeast selection) (log enrichment); library NNK2; higher = more nucleation; inactive = no reads after selection
Procedure, shortened: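 Yeast lacking psi expressed peptides of 20 random codons fused to Sup35N, received 100 μM copper sulfate for 24 hours, and were then grown for 7 days at 30°C on medium lacking adenine and uracil. Illumina sequencing of input and output plasmid inserts provided the reads. Nucleation scores are DiMSum log enrichments of output over input, centred on the mode of non-aggregating sequences. Any sequence with under 100 input reads was excluded.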

| Substance | amyloid nucleation score |
| --- | --- |
| SFITCRFNRDCFLLQFSWYN | inactive |
| SFIWSLMSLIEFPVLYKSVV | 0.067 ± 0.32 |
| SFKICKLMNSNRFFVGICCT | 0.057 ± 1.1 |
| SFKYCMMISGGF | 4.503 ± 0.041 |
| SFLLRWSRFVYICYSICCMI | -1.02 ± 0.55 |
| SFLVISWRADRFAA | 5.124 ± 0.042 |
| SFLWLSMFVESAQVVNLQLY | 5.485 ± 0.038 |
| SFPAGICPLMRLVYVNMGVG | -0.683 ± 1.1 |
| SFPDSSRSKWIS | -0.775 ± 0.45 |
| SFPYNHFYMDYMPVRAPLVV | -0.153 ± 1.1 |
| SFRFGEKDCWLDCCRVMRKK | 5.59 ± 0.068 |
| SFRQIATLYEKMFNDNGNGI | -0.528 ± 0.37 |
| SFRRSPELSQEFTRGYDSYR | -0.276 ± 0.76 |
| SFRTAHSAPEVGMLEVYMNL | 0.334 ± 0.5 |
| SFVMYRNSGRVCGMRVASEW | 0.766 ± 0.22 |
| SFYVIRVGSLPFRS | 3.25 ± 0.075 |
| SGCASSSDTFDRSLCCEYTL | 0.295 ± 1 |
| SGDHDGHEMRILRWSMLRYG | 1.56 ± 0.11 |
| SGERRTGCPEAAS | 0.075 ± 0.34 |
| SGFCQGGNSSRYMSII | 1.9 ± 0.27 |
| SGFGGLEGFIRPSYSLLAGW | -0.424 ± 0.48 |
| SGFNGFSLNHFQNQFKTPRS | -0.356 ± 1.1 |

| Substance | amyloid nucleation score |
| --- | --- |
| SGFVIWRRQHFEFQEVRSS | -0.515 ± 1.1 |
| SGGLSR | -0.728 ± 0.79 |
| SGIMRIE | inactive |
| SGIRDTLVSWGPRGMG | -0.309 ± 0.45 |
| SGNGTVRSEYTRYCCLKGEM | 0.822 ± 0.3 |
| SGQKFN | 0.015 ± 0.76 |
| SGQYKENYGGFHHMLVRWRC | -0.042 ± 0.27 |
| SGSALLIEFRYSTSFREKRI | 5.687 ± 0.046 |
| SGSHVYFKSCTGLKLPIVLG | 4.498 ± 0.04 |
| SGSLSINDNSCYGENTNTVL | -1.21 ± 1.1 |
| SGTDHNRMYF | 0.312 ± 0.57 |
| SHFCN | 0.859 ± 0.43 |
| SHGFFMAVEGLNCVRFVIIL | inactive |
| SHHHSQTRKIDPSTDFSQSS | -0.047 ± 1.1 |
| SHIDMFAQECYLCFANVHRR | 2.78 ± 0.21 |
| SHLALTY | 0.14 ± 0.25 |
| SHLCHLGGSRRTQRVVEVSS | 5.72 ± 0.064 |
| SHMSHYRNSSTDFAA | -0.745 ± 0.42 |
| SHRMTSNNTNSNLLGRKTGS | -0.139 ± 0.19 |
| SHTDYHRFAWMF | -1.74 ± 0.53 |
| SHTSCGMKVSLRICHSMGQR | 6.434 ± 0.057 |
| SHWCIVYKGLRNVIVC | inactive |

| Substance | amyloid nucleation score |
| --- | --- |
| SHWEMRQVGSVVVGIKGKGN | 0.972 ± 0.67 |
| SICYFCLFLNIIDSDSIFAV | 5.87 ± 0.059 |
| SIFNFKATFGNSSRDVMSDD | 3.28 ± 0.057 |
| SIGFPSMSMRSWILFTSLYR | 0.004 ± 0.8 |
| SIGPQRHLPYLLVFVYWTLS | 0.309 ± 0.8 |
| SIGWRPPCLVFDVGWRREGQ | -0.109 ± 0.42 |
| SIIGVYLCFLSFRTNVLWKT | -0.122 ± 0.27 |
| SILGSSRTCILSSWWNVGTL | -0.091 ± 0.8 |
| SIMGRIKIAIHVLRS | 4.12 ± 0.091 |
| SIRIKRLSNLQSRNPVRPRV | -0.578 ± 1.1 |
| SIRRCPVKFINKRLVVYLKV | -0.88 ± 0.55 |
| SISLEIHTAGTGKSRLPFYS | 5.67 ± 0.073 |
| SISRISPTQGIIGQTRFFYV | -1.14 ± 0.76 |
| SISSGMVDVAGQLSCTRVSE | 1.65 ± 0.32 |
| SITYTNLMNTLQAIRTSFLA | -0.708 ± 1.1 |
| SIVNFWNMIVE | 3.32 ± 0.15 |
| SIWYSNYNNSRKIPSAYKKW | 2.34 ± 0.071 |
| SKFLM | -1.14 ± 0.48 |
| SKFWVARRCFASHLK | -0.272 ± 1.1 |
| SKGGCTEFIEKTWNLCSCLV | -1.1 ± 0.78 |
| SKKTIVFGGTIRTTALPGPG | -0.592 ± 0.76 |
| SKLRFAIIFAKHVS | -0.322 ± 0.41 |

| Substance | amyloid nucleation score |
| --- | --- |
| SKLTRSIENLLF | 0.949 ± 0.15 |
| SKMCCDMYISISCIIWSARR | 0.352 ± 0.32 |
| SKMWTIRYFSLVRCLHGLLN | -0.985 ± 0.45 |
| SKMYMPAVWMDGPSPQTTMW | 0.73 ± 0.37 |
| SKSEIHCYLMMGRHLFG | 4.5 ± 0.11 |
| SKVLKRACYGAAGPFRIVHV | 3.29 ± 0.082 |
| SKVLNGFYIWYHQVPQLYPL | -1.19 ± 1 |
| SLCLLIALSRWSIAS | 1.14 ± 0.3 |
| SLDGISHHSTDVNLVLNCYR | 5.222 ± 0.045 |
| SLDNWFTDSRAGVGLVFS | -0.277 ± 1 |
| SLEDCYCDRVI | -0.528 ± 0.34 |
| SLESSLAYVGSLGIAGGSAQ | 1.11 ± 0.23 |
| SLFAVQTVVEVVVHV | 0.762 ± 0.41 |
| SLFCVPSSRKVLFLGRTVVV | 0.123 ± 1 |
| SLFLDDKEWMKGITKFLMDP | 0.419 ± 0.51 |
| SLFTTINARNATAEQCSMQT | 0.502 ± 0.21 |
| SLGEGISFIVWCDGILLLGC | -1.15 ± 0.76 |
| SLGHDSICWRWSLE | 5.49 ± 0.094 |
| SLIDLLPCFFICRGRCFPSV | -0.672 ± 0.37 |
